Results taken from patent US20260209293A1 (Novo Nordisk, published 2026).
*1 amine or outer side, *2 acyl side, *3 side chain or, on linkers, in order; H or OH if unused. Side-chain parts run from the residue outwards. The star is where a group is joined. C20 diacid = O=C(O)CCCCCCCCCCCCCCCCCCC(=O)*; C18 diacid = O=C(O)CCCCCCCCCCCCCCCCC(=O)*; γGlu = O=C(O)[C@H](CCC(=O)[*:2])N[*:1]

T1: human amylin-3(a) receptor (human, UniProt P30988 25-474; O60896 24-148)
T1 sequence (looked up) 1: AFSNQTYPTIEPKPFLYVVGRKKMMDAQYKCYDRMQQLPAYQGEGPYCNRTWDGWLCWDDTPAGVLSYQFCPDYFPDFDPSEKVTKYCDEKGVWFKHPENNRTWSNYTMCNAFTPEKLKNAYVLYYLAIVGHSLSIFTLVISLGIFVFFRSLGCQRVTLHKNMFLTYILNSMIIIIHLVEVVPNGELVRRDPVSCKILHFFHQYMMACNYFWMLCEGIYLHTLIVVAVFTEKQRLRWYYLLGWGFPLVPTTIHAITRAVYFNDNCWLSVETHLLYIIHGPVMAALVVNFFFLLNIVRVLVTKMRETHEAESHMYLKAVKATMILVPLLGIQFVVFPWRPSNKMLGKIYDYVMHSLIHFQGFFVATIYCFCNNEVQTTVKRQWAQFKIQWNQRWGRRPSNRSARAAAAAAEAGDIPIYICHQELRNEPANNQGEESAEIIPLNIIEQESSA
T1 sequence (looked up) 2: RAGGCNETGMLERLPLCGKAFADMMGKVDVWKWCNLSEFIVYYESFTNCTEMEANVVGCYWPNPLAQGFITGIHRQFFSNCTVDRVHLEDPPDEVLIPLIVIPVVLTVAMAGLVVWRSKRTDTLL

T2: human calcitonin receptor (a) (human, UniProt P30988 25-474)
T2 sequence (looked up): T1 sequence (looked up) 1

B1: N^1-[(4S)-4-carboxy-4-(17-carboxyheptadecanoylamino)butanoyl]-[Ala1,Ser2,His3,Leu4,Ser5,Ala7,Gln8,Ala10,Glu14, His17, Pro25, Pro28, … (peptide)
peptide: {C18 diacid-γGlu}-ASHLSTAQTARLAEFLHHFGPILPPTDVGSETY-NH2
SMILES: CC[C@H](C)[C@H](NC(=O)[C@@H]1CCCN1C(=O)CNC(=O)[C@H](Cc1ccccc1)NC(=O)[C@H](Cc1c[nH]cn1)NC(=O)[C@H](Cc1c[nH]cn1)NC(=O)[C@H](CC(C)C)NC(=O)[C@H](Cc1ccccc1)NC(=O)[C@H](CCC(=O)O)NC(=O)[C@H](C)NC(=O)[C@H](CC(C)C)NC(=O)[C@H](CCCNC(=N)N)NC(=O)[C@H](C)NC(=O)[C@@H](NC(=O)[C@H](CCC(N)=O)NC(=O)[C@H](C)NC(=O)[C@@H](NC(=O)[C@H](CO)NC(=O)[C@H](CC(C)C)NC(=O)[C@H](Cc1c[nH]cn1)NC(=O)[C@H](CO)NC(=O)[C@H](C)NC(=O)CC[C@H](NC(=O)CCCCCCCCCCCCCCCCC(=O)O)C(=O)O)[C@@H](C)O)[C@@H](C)O)C(=O)N[C@@H](CC(C)C)C(=O)N1CCC[C@H]1C(=O)N1CCC[C@H]1C(=O)N[C@H](C(=O)N[C@@H](CC(=O)O)C(=O)N[C@H](C(=O)NCC(=O)N[C@@H](CO)C(=O)N[C@@H](CCC(=O)O)C(=O)N[C@H](C(=O)N[C@@H](Cc1ccc(O)cc1)C(N)=O)[C@@H](C)O)C(C)C)[C@@H](C)O
B2: N^1-[(4S)-4-carboxy-4-(19-carboxynonadecanoylamino)butanoyl]-[Ala1,Ser2,His3,Leu4,Ser5,Ala7,Gln8,Ala10,Glu14,His17,Asp21,Pro22,Pro27,Asp31, … (peptide)
peptide: {C20 diacid-γGlu}-ASHLSTAQTARLAEFLHHSSDPFGAIPSSTDVGPDTP-NH2
SMILES: CC[C@H](C)[C@H](NC(=O)[C@H](C)NC(=O)CNC(=O)[C@H](Cc1ccccc1)NC(=O)[C@@H]1CCCN1C(=O)[C@H](CC(=O)O)NC(=O)[C@H](CO)NC(=O)[C@H](CO)NC(=O)[C@H](Cc1c[nH]cn1)NC(=O)[C@H](Cc1c[nH]cn1)NC(=O)[C@H](CC(C)C)NC(=O)[C@H](Cc1ccccc1)NC(=O)[C@H](CCC(=O)O)NC(=O)[C@H](C)NC(=O)[C@H](CC(C)C)NC(=O)[C@H](CCCNC(=N)N)NC(=O)[C@H](C)NC(=O)[C@@H](NC(=O)[C@H](CCC(N)=O)NC(=O)[C@H](C)NC(=O)[C@@H](NC(=O)[C@H](CO)NC(=O)[C@H](CC(C)C)NC(=O)[C@H](Cc1c[nH]cn1)NC(=O)[C@H](CO)NC(=O)[C@H](C)NC(=O)CC[C@H](NC(=O)CCCCCCCCCCCCCCCCCCC(=O)O)C(=O)O)[C@@H](C)O)[C@@H](C)O)C(=O)N1CCC[C@H]1C(=O)N[C@@H](CO)C(=O)N[C@@H](CO)C(=O)N[C@H](C(=O)N[C@@H](CC(=O)O)C(=O)N[C@H](C(=O)NCC(=O)N1CCC[C@H]1C(=O)N[C@@H](CC(=O)O)C(=O)N[C@H](C(=O)N1CCC[C@H]1C(N)=O)[C@@H](C)O)C(C)C)[C@@H](C)O
B3: N^1-[(4S)-4-carboxy-4-(17-carboxyheptadecanoylamino)butanoyl]-[Ala1,Ser2,His3,Leu4,Ser5,Ala7,Gln8,Ala10,Glu14,His17,Asp21,Pro22,Pro27,Asp31, Pro34,Asp35]-human … (peptide)
peptide: {C18 diacid-γGlu}-ASHLSTAQTARLAEFLHHSSDPFGAIPSSTDVGPDTY-NH2
SMILES: CC[C@H](C)[C@H](NC(=O)[C@H](C)NC(=O)CNC(=O)[C@H](Cc1ccccc1)NC(=O)[C@@H]1CCCN1C(=O)[C@H](CC(=O)O)NC(=O)[C@H](CO)NC(=O)[C@H](CO)NC(=O)[C@H](Cc1c[nH]cn1)NC(=O)[C@H](Cc1c[nH]cn1)NC(=O)[C@H](CC(C)C)NC(=O)[C@H](Cc1ccccc1)NC(=O)[C@H](CCC(=O)O)NC(=O)[C@H](C)NC(=O)[C@H](CC(C)C)NC(=O)[C@H](CCCNC(=N)N)NC(=O)[C@H](C)NC(=O)[C@@H](NC(=O)[C@H](CCC(N)=O)NC(=O)[C@H](C)NC(=O)[C@@H](NC(=O)[C@H](CO)NC(=O)[C@H](CC(C)C)NC(=O)[C@H](Cc1c[nH]cn1)NC(=O)[C@H](CO)NC(=O)[C@H](C)NC(=O)CC[C@H](NC(=O)CCCCCCCCCCCCCCCCC(=O)O)C(=O)O)[C@@H](C)O)[C@@H](C)O)C(=O)N1CCC[C@H]1C(=O)N[C@@H](CO)C(=O)N[C@@H](CO)C(=O)N[C@H](C(=O)N[C@@H](CC(=O)O)C(=O)N[C@H](C(=O)NCC(=O)N1CCC[C@H]1C(=O)N[C@@H](CC(=O)O)C(=O)N[C@H](C(=O)N[C@@H](Cc1ccc(O)cc1)C(N)=O)[C@@H](C)O)C(C)C)[C@@H](C)O
B4: N^1-[(4S)-4-carboxy-4-(17-carboxyheptadecanoylamino)butanoyl]-[Ala1,Ser2,His3,Leu4,Ser5,Ala7,Gln8,Ala10,Glu14,His17,Asp21,Pro25,Pro28,Pro29,Asp31]-human amylin (peptide)
peptide: {C18 diacid-γGlu}-ASHLSTAQTARLAEFLHHSSDNFGPILPPTDVGSNTY-NH2
SMILES: CC[C@H](C)[C@H](NC(=O)[C@@H]1CCCN1C(=O)CNC(=O)[C@H](Cc1ccccc1)NC(=O)[C@H](CC(N)=O)NC(=O)[C@H](CC(=O)O)NC(=O)[C@H](CO)NC(=O)[C@H](CO)NC(=O)[C@H](Cc1c[nH]cn1)NC(=O)[C@H](Cc1c[nH]cn1)NC(=O)[C@H](CC(C)C)NC(=O)[C@H](Cc1ccccc1)NC(=O)[C@H](CCC(=O)O)NC(=O)[C@H](C)NC(=O)[C@H](CC(C)C)NC(=O)[C@H](CCCNC(=N)N)NC(=O)[C@H](C)NC(=O)[C@@H](NC(=O)[C@H](CCC(N)=O)NC(=O)[C@H](C)NC(=O)[C@@H](NC(=O)[C@H](CO)NC(=O)[C@H](CC(C)C)NC(=O)[C@H](Cc1c[nH]cn1)NC(=O)[C@H](CO)NC(=O)[C@H](C)NC(=O)CC[C@H](NC(=O)CCCCCCCCCCCCCCCCC(=O)O)C(=O)O)[C@@H](C)O)[C@@H](C)O)C(=O)N[C@@H](CC(C)C)C(=O)N1CCC[C@H]1C(=O)N1CCC[C@H]1C(=O)N[C@H](C(=O)N[C@@H](CC(=O)O)C(=O)N[C@H](C(=O)NCC(=O)N[C@@H](CO)C(=O)N[C@@H](CC(N)=O)C(=O)N[C@H](C(=O)N[C@@H](Cc1ccc(O)cc1)C(N)=O)[C@@H](C)O)C(C)C)[C@@H](C)O
B5: N^1-acetyl,N{Epsilon-25}-[(4S)-4-carboxy-4-(17-carboxyheptadecanoylamino)butanoyl]-[Ala1,Ser2,His3,Leu4,Ser5,Ala7,Gln8,Ala10,Glu14,His17,Asp21,Pro22,Lys25,Pro27 … (peptide)
peptide: Ac-ASHLSTAQTARLAEFLHHSSDPFGK([γGlu-C18 diacid])IPSSTDVGPDTP-NH2
SMILES: CC[C@H](C)[C@H](NC(=O)[C@H](CCCCNC(=O)CC[C@H](NC(=O)CCCCCCCCCCCCCCCCC(=O)O)C(=O)O)NC(=O)CNC(=O)[C@H](Cc1ccccc1)NC(=O)[C@@H]1CCCN1C(=O)[C@H](CC(=O)O)NC(=O)[C@H](CO)NC(=O)[C@H](CO)NC(=O)[C@H](Cc1c[nH]cn1)NC(=O)[C@H](Cc1c[nH]cn1)NC(=O)[C@H](CC(C)C)NC(=O)[C@H](Cc1ccccc1)NC(=O)[C@H](CCC(=O)O)NC(=O)[C@H](C)NC(=O)[C@H](CC(C)C)NC(=O)[C@H](CCCNC(=N)N)NC(=O)[C@H](C)NC(=O)[C@@H](NC(=O)[C@H](CCC(N)=O)NC(=O)[C@H](C)NC(=O)[C@@H](NC(=O)[C@H](CO)NC(=O)[C@H](CC(C)C)NC(=O)[C@H](Cc1c[nH]cn1)NC(=O)[C@H](CO)NC(=O)[C@H](C)NC(C)=O)[C@@H](C)O)[C@@H](C)O)C(=O)N1CCC[C@H]1C(=O)N[C@@H](CO)C(=O)N[C@@H](CO)C(=O)N[C@H](C(=O)N[C@@H](CC(=O)O)C(=O)N[C@H](C(=O)NCC(=O)N1CCC[C@H]1C(=O)N[C@@H](CC(=O)O)C(=O)N[C@H](C(=O)N1CCC[C@H]1C(N)=O)[C@@H](C)O)C(C)C)[C@@H](C)O
B6: N^1-acetyl,N{Epsilon-25}-[(4S)-4-carboxy-4-(17-carboxyheptadecanoylamino)butanoyl]-[Ala1,Ser2,His3,Leu4,Ser5,Ala7,Gln8,Ala10,Glu14,His17,Asp21,Lys25,Pro28,Pro29 … (peptide)
peptide: Ac-ASHLSTAQTARLAEFLHHSSDNFGK([γGlu-C18 diacid])ILPPTDVGSNTP-NH2
SMILES: CC[C@H](C)[C@H](NC(=O)[C@H](CCCCNC(=O)CC[C@H](NC(=O)CCCCCCCCCCCCCCCCC(=O)O)C(=O)O)NC(=O)CNC(=O)[C@H](Cc1ccccc1)NC(=O)[C@H](CC(N)=O)NC(=O)[C@H](CC(=O)O)NC(=O)[C@H](CO)NC(=O)[C@H](CO)NC(=O)[C@H](Cc1c[nH]cn1)NC(=O)[C@H](Cc1c[nH]cn1)NC(=O)[C@H](CC(C)C)NC(=O)[C@H](Cc1ccccc1)NC(=O)[C@H](CCC(=O)O)NC(=O)[C@H](C)NC(=O)[C@H](CC(C)C)NC(=O)[C@H](CCCNC(=N)N)NC(=O)[C@H](C)NC(=O)[C@@H](NC(=O)[C@H](CCC(N)=O)NC(=O)[C@H](C)NC(=O)[C@@H](NC(=O)[C@H](CO)NC(=O)[C@H](CC(C)C)NC(=O)[C@H](Cc1c[nH]cn1)NC(=O)[C@H](CO)NC(=O)[C@H](C)NC(C)=O)[C@@H](C)O)[C@@H](C)O)C(=O)N[C@@H](CC(C)C)C(=O)N1CCC[C@H]1C(=O)N1CCC[C@H]1C(=O)N[C@H](C(=O)N[C@@H](CC(=O)O)C(=O)N[C@H](C(=O)NCC(=O)N[C@@H](CO)C(=O)N[C@@H](CC(N)=O)C(=O)N[C@H](C(=O)N1CCC[C@H]1C(N)=O)[C@@H](C)O)C(C)C)[C@@H](C)O

What follows are binders tested against T1, human amylin-3(a) receptor (assay: cell-based or functional assay).

Row | hAmyR3 potency, EC50 (pM); CRE-luciferase reporter in BHK cells | Binder
1 | 2.11 pM | B1
2 | 1.05 pM | B2
3 | 1.68 pM | B3
4 | 1.97 pM | B4
5 | 1.38 pM | B5
6 | 1.16 pM | B6

The binders below were run against T2, human calcitonin receptor (a) (assay: cell-based or functional assay).

Row | hCalcR potency, EC50 (pM); CRE-luciferase reporter in BHK cells | Binder
7 | 2.78 pM | B1
8 | 1.41 pM | B2
9 | 2.16 pM | B3
10 | 3.15 pM | B4
11 | 1.29 pM | B5
12 | 1.16 pM | B6
